Source: article PMC8043444 (bioRxiv, 2021)

B1: S2D106 Fab (Fab, V domains shown)
VH: EVQLVQSGAEVKKPGSSVKVSCKASGGPFSSSAISWVRQAPGQGLEWMGGIIPMVGTANYAQKFQGRVTITADESTSTAYMELSSLRSEDTAVYYCARDSRYCSGGSCYSVWFDPWGQGTLVTVSS
VL: not shown
B2: S2H97 Fab (Fab, V domains shown)
VH: QVRLVQSGAEVKKSGESLKISCKGSGYSFTSYWIGWVRQMPGKGLEWMGIIYPGDSDTRYSPSFQGQVTISADKSISTVYLQWSSLKASDTAMYYCARQWSHYTYDYYYWGQGTLVTISS
VL: QSVLTQPASVSGSPGQSITISCTGISSDVGGYNSVSWYQQHPGKAPKLMIYDVTNRPSGVSNRFSGSKSGNTASLTISGLQAEDEADYYCSSYTSSSTPPYVFGTGTKVSVL
B3: S2H14 IgG1 (LS) (antibody, V domains shown)
VH: not shown
VL: NFMLTQPHSVSESPGKTVTISCTRSSGSIASNYVQWYQQRPGSSPTTVIYEDNQRPSGVPDRFSGSIDSSSNSASLTISGLKTEDEADYYCQSYDSSNQVFGGGTKLTVL

Columns and labels:
[1] = target: SARS-CoV-2 HexaPro Spike protein for cryoEM analysis (SARS-CoV-2 (Wuhan-Hu-1), UniProt P0DTC2, stabilised); experiment: cryo-EM structure
[2] = target: yeast-displayed unmutated SARS-CoV-2 RBD (Wuhan-Hu-1) (SARS-CoV-2, UniProt P0DTC2); experiment: flow cytometry on cells

| Binder | binding result [1] | binding result [2] |
| --- | --- | --- |
| B1 | binds |  |
| B2 | binds |  |
| B3 |  | binds |
